Data as given in US20030049729.

Assays:
[1] = target: T1, human fibrinogen fragments, P02671
T1 chain 1: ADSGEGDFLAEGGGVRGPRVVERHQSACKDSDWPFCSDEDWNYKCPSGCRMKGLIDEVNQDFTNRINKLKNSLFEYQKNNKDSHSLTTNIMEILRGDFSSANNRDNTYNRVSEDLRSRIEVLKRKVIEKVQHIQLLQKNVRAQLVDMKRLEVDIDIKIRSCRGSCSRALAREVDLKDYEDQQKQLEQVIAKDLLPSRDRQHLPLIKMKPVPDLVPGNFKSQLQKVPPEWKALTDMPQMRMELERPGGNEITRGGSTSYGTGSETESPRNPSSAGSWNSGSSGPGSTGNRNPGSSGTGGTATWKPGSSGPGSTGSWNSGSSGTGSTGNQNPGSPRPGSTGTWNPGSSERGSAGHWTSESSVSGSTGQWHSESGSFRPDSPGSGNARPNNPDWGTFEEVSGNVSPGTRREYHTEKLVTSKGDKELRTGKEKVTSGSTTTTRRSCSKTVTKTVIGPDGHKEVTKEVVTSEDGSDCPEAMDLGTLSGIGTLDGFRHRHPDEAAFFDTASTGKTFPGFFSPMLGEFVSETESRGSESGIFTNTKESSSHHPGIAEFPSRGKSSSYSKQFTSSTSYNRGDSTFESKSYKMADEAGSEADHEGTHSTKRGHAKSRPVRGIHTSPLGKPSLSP
T1 chain 2: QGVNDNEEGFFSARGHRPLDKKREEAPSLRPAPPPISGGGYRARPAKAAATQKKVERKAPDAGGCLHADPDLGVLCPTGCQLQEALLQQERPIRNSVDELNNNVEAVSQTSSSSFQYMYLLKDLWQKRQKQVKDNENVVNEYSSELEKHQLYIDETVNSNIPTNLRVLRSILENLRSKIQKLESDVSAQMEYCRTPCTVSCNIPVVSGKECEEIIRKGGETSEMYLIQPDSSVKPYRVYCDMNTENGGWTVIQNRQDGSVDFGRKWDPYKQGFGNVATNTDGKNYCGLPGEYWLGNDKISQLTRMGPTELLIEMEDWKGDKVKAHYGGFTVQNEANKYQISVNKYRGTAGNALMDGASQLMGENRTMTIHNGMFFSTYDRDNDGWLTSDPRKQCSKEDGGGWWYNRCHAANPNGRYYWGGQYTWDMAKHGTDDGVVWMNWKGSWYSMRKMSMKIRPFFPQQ
T1 chain 3: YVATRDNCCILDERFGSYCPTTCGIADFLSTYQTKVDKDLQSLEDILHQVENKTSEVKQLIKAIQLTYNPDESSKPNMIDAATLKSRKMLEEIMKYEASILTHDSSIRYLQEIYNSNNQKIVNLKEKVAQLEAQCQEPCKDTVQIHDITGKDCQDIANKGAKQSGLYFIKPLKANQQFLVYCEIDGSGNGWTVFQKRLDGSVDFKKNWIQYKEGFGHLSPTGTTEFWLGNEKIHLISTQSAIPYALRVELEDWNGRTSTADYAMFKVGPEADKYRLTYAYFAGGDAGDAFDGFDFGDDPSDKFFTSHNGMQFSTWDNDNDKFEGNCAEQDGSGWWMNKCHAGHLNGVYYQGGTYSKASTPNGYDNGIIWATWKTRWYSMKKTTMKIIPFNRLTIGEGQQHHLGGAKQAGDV

Sequence of plasminogen (P00747 20-810): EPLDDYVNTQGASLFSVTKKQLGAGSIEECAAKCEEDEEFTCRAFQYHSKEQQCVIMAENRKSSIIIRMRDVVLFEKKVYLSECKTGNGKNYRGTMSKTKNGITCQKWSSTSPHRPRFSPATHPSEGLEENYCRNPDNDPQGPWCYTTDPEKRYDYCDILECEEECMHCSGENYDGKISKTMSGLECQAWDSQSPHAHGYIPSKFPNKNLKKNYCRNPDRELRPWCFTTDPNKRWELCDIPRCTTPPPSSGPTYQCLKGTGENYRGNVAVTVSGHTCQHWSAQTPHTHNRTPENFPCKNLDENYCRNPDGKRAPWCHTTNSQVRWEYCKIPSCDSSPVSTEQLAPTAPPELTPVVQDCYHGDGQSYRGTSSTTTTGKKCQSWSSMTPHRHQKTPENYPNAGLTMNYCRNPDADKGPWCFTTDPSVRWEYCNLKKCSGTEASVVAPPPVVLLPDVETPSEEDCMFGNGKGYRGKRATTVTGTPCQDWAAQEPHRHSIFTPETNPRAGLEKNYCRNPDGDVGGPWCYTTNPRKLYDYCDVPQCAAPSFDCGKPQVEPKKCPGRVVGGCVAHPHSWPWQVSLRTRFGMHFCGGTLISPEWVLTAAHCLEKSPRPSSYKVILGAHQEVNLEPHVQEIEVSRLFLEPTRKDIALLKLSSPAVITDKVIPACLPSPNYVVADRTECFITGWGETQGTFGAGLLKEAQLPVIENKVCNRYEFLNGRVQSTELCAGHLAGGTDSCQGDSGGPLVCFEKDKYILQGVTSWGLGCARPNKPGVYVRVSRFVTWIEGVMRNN

B1: recombinant-K2S (r-K2S), kringle 2 plus serine protease portion of tPA, expressed in non-gpIII fusion form in XM[K2S] (protein)
chain: SEGNSDCYFGNGSAYRGTHSLTESGASCLPWNSMILIGKVYTAQNPSAQALGLGKHNYCRNPDGDAKPWCHVLKNRRLTWEYCDVPSCSTCGLRQYSQPQFRIKGGLFADIASHPWQAAIFAKHRRSPGERFLCGGILISSCWILSAAHCFQERFPPHHLTVILGRTYRVVPGEEEQKFEVEKYIVHKEFDDDTYDNDIALLQLKSDSSRCAQESSVVRTVCLPPADLQLPDWTECELSGYGKHEALSPFYSERLKEAHVRLYPSSRCTSQHLLNRTVTDNMLCAGDTRSGGPQANLHDACQGDSGGPLVCLNDGRMTLVGIISWGLGCGQKDVPGVYTKVTNYLDWIRDNMRP
With B1 the “enzymatic activity without fibrinogen” value [1] was “Without fibrinogen no enzymatic activity of the r-K2S purified from culture supernatant was observed”, the “copolymerized plasminogen polyacrylamide gel electrophoresis” value (plasminogen) was “Transparent areas of serine protease digested plasminogen were observed only in the ammonium sulfate precipitated culture supernatants of XM[K2S] at 34 and 37 kDa postions” and the “fibrinogen-dependent enzymatic activity (culture supernatant r-K2S)” value (plasminogen) was 7 IU/ml. The “fibrinogen-dependent enzymatic activity (periplasmic r-K2S)” value (plasminogen) was “notably low enzymatic activity, which was below the sensitivity of the test (0.25 IU/ml)”.

B2: standard melanoma tPA 86/670 (protein)
chain: SYQVICRDEKTQMIYQQHQSWLRPVLRSNRVEYCWCNSGRAQCHSVPVKSCSEPRCFNGGTCQQALYFSDFVCQCPEGFAGKCCEIDTRATCYEDQGISYRGTWSTAESGAECTNWNSSALAQKPYSGRRPDAIRLGLGNHNYCRNPDRDSKPWCYVFKAGKYSSEFCSTPACSEGNSDCYFGNGSAYRGTHSLTESGASCLPWNSMILIGKVYTAQNPSAQALGLGKHNYCRNPDGDAKPWCHVLKNRRLTWEYCDVPSCSTCGLRQYSQPQFRIKGGLFADIASHPWQAAIFAKHRRSPGERFLCGGILISSCWILSAAHCFQERFPPHHLTVILGRTYRVVPGEEEQKFEVEKYIVHKEFDDDTYDNDIALLQLKSDSSRCAQESSVVRTVCLPPADLQLPDWTECELSGYGKHEALSPFYSERLKEAHVRLYPSSRCTSQHLLNRTVTDNMLCAGDTRSGGPQANLHDACQGDSGGPLVCLNDGRMTLVGIISWGLGCGQKDVPGVYTKVTNYLDWIRDNMRP
With B2 the “enzymatic activity without fibrinogen” value [1] was “standard melanoma tPA showed some activity” and the “copolymerized plasminogen polyacrylamide gel electrophoresis” value (plasminogen) was “The positive control lane of standard melanoma tPA also demonstrated enzymatic activity at 66 and 72 kDa positions”.
